# Reference: publication PMC9482650, “Quantitative fragmentomics allow affinity mapping of interactomes” (Nature Communications, 2022)
# T1: APBA2_1, Q99767
# T1 sequence (Q99767 563-664, limits assumed, looked up): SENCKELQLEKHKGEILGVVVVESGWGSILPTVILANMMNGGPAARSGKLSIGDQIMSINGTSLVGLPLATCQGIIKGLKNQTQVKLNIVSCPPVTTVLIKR
# T2: APBA3_1, O96018
# T2 sequence (O96018 389-490, limits assumed, looked up): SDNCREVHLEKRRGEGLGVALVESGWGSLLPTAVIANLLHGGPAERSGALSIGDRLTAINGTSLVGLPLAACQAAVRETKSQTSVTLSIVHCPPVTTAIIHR
# T3: GRIP1_7, Q9Y3R0
# T3 sequence (Q9Y3R0 999-1096, limits assumed, looked up): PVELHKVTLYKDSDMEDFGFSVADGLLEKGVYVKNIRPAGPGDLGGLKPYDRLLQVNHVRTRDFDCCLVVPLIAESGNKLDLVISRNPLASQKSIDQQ
# T4: HTRA4, P83105
# T4 sequence (P83105 378-476, limits assumed, looked up): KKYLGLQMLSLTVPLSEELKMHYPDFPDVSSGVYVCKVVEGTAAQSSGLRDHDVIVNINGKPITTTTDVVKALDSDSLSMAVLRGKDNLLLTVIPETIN
# T5: LNX2_3, Q8N448
# T5 sequence (Q8N448 463-564, limits assumed, looked up): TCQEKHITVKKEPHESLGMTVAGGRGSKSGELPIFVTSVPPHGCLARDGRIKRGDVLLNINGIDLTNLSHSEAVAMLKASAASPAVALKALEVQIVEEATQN
# T6: MPP6, Q9NZW5
# T6 sequence (Q9NZW5 125-219, limits assumed, looked up): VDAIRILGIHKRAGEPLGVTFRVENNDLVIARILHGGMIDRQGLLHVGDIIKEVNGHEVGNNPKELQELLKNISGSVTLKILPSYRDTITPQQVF
# T7: PDZD2_2, O15018
# T7 sequence (O15018 329-429, limits assumed, looked up): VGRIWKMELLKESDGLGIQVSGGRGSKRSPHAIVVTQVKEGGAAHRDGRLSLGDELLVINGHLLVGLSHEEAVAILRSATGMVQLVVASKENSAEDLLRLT
# T8: RADIL, Q96JH8
# T8 sequence (Q96JH8 971-1071, limits assumed, looked up): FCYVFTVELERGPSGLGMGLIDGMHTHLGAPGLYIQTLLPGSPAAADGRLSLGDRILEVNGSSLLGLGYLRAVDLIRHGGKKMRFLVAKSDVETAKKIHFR
# T9: RAPGEF6, Q8TEU7
# T9 sequence (Q8TEU7 525-625, limits assumed, looked up): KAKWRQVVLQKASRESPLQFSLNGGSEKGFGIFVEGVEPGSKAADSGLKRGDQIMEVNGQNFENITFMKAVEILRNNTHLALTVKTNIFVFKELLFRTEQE
# T10: SNTB1, Q13884
# T10 sequence (Q13884 107-205, limits assumed, looked up): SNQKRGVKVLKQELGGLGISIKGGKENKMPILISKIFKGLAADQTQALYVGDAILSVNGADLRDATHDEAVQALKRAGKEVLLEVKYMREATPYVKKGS
# T11: SNTG1, Q9NSN8
# T11 sequence (Q9NSN8 52-150, limits assumed, looked up): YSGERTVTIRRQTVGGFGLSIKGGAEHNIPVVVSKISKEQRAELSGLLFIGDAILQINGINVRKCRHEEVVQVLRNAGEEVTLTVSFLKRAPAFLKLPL
# T12: TIAM2, Q8IVF5
# T12 sequence (Q8IVF5 885-986, limits assumed, looked up): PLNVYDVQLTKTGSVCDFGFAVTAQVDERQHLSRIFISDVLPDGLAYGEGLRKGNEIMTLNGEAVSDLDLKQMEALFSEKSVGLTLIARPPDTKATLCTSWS
# Experiments:
# Assay in all cases: holdup assay
# Design in all cases: key: below the threshold = too weak to quantify, mostly under pKd 3.1 to 4
# Conditions in all cases: plain residues with an end cap or a label only (N-terminal biotin on a linker: ado-ado)
# APBA2_1, Q99767 = molecular target: T1, APBA2_1, Q99767
# APBA3_1, O96018 = molecular target: T2, APBA3_1, O96018
# DLG1_1, Q12959 = molecular target: DLG1_1, Q12959
# DLG4_1, P78352 = molecular target: DLG4_1, P78352
# DLG5_1, Q8TDM6 = molecular target: DLG5_1, Q8TDM6
# FRMPD2_2, Q68DX3 = molecular target: FRMPD2_2, Q68DX3
# GRIP1_7, Q9Y3R0 = molecular target: T3, GRIP1_7, Q9Y3R0
# GRIP2_4, Q9C0E4 = molecular target: GRIP2_4, Q9C0E4
# GRIP2_5, Q9C0E4 = molecular target: GRIP2_5, Q9C0E4
# GRIP2_6, Q9C0E4 = molecular target: GRIP2_6, Q9C0E4
# HTRA4, P83105 = molecular target: T4, HTRA4, P83105
# Inadl_2, Q8NI35 = molecular target: Inadl_2, Q8NI35
# Inadl_3, Q8NI35 = molecular target: Inadl_3, Q8NI35
# Inadl_5, Q8NI35 = molecular target: Inadl_5, Q8NI35
# LIMK2, P53671 = molecular target: LIMK2, P53671
# LNX2_3, Q8N448 = molecular target: T5, LNX2_3, Q8N448
# MPP6, Q9NZW5 = molecular target: T6, MPP6, Q9NZW5
# PDLIM1, O00151 = molecular target: PDLIM1, O00151
# PDZD2_2, O15018 = molecular target: T7, PDZD2_2, O15018
# RADIL, Q96JH8 = molecular target: T8, RADIL, Q96JH8
# RAPGEF6, Q8TEU7 = molecular target: T9, RAPGEF6, Q8TEU7
# SNTB1, Q13884 = molecular target: T10, SNTB1, Q13884
# SNTG1, Q9NSN8 = molecular target: T11, SNTG1, Q9NSN8
# TIAM2, Q8IVF5 = molecular target: T12, TIAM2, Q8IVF5
# TJP1_3, Q07157 = molecular target: TJP1_3, Q07157
# TJP1_3, Q07157, sequence (Q07157 416-512): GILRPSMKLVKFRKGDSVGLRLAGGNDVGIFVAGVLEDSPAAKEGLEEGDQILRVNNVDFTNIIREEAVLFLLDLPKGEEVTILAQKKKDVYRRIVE
# DLG4_1, P78352, sequence (P78352 62-152): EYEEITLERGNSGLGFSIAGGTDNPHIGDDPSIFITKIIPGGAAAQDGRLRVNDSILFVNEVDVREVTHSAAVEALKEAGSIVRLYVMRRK
# Inadl_5, Q8NI35, sequence (Q8NI35 673-780): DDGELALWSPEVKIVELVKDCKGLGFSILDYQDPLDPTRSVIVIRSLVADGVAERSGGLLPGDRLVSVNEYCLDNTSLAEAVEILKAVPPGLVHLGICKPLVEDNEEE
# Inadl_2, Q8NI35, sequence (Q8NI35 238-335): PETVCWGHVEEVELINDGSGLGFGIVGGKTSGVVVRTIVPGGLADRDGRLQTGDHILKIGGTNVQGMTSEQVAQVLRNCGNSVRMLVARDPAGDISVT
# GRIP2_4, Q9C0E4, sequence (Q9C0E4 446-548): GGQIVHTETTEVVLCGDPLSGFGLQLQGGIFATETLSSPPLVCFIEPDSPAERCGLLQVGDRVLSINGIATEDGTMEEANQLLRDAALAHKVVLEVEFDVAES
# GRIP2_6, Q9C0E4, sequence (Q9C0E4 648-740): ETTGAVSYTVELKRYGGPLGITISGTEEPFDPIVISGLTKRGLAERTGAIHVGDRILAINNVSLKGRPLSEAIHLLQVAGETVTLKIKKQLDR
# GRIP2_5, Q9C0E4, sequence (Q9C0E4 544-642): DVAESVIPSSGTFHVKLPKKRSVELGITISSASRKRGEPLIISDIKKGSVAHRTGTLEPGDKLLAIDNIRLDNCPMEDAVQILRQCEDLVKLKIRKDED
# FRMPD2_2, Q68DX3, sequence (Q68DX3 944-1038): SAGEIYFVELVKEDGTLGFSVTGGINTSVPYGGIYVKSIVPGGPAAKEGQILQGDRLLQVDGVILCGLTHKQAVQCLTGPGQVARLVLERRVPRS
# PDLIM1, O00151, sequence (O00151 1-87): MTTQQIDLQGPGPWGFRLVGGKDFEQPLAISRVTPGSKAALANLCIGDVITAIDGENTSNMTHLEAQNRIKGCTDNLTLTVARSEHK
# LIMK2, P53671, sequence (P53671 143-248): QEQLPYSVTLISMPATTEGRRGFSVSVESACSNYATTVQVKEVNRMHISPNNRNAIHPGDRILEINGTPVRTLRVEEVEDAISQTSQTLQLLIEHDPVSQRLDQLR
# DLG5_1, Q8TDM6, sequence (Q8TDM6 617-713): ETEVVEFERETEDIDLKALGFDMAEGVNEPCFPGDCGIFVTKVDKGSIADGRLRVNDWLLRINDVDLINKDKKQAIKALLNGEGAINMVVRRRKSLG
# Inadl_3, Q8NI35, sequence (Q8NI35 359-469): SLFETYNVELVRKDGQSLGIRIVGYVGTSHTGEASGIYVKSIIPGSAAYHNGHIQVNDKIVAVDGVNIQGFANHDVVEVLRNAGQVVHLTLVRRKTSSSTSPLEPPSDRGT
Binder,"pKd (APBA2_1, Q99767)","pKd (APBA3_1, O96018)","pKd (DLG1_1, Q12959)","pKd (DLG4_1, P78352)","pKd (DLG5_1, Q8TDM6)","pKd (FRMPD2_2, Q68DX3)","pKd (GRIP1_7, Q9Y3R0)","pKd (GRIP2_4, Q9C0E4)","pKd (GRIP2_5, Q9C0E4)","pKd (GRIP2_6, Q9C0E4)","pKd (HTRA4, P83105)","pKd (Inadl_2, Q8NI35)","pKd (Inadl_3, Q8NI35)","pKd (Inadl_5, Q8NI35)","pKd (LIMK2, P53671)","pKd (LNX2_3, Q8N448)","pKd (MPP6, Q9NZW5)","pKd (PDLIM1, O00151)","pKd (PDZD2_2, O15018)","pKd (RADIL, Q96JH8)",other results
"SAAKVLTSMC [GHRHR, Q02643]",below the threshold,below the threshold,below the threshold,below the threshold,below the threshold,below the threshold,below the threshold,below the threshold,below the threshold,below the threshold,below the threshold,below the threshold,below the threshold,below the threshold,below the threshold,below the threshold,below the threshold,below the threshold,4.75,3.71,"pKd (RAPGEF6, Q8TEU7): below the threshold; pKd (SNTB1, Q13884): 3.53; pKd (SNTG1, Q9NSN8): below the threshold; pKd (TIAM2, Q8IVF5): below the threshold; pKd (TJP1_3, Q07157): below the threshold"
"QSPANIYYKV [EFNB1, P52799]",below the threshold,below the threshold,below the threshold,below the threshold,below the threshold,below the threshold,below the threshold,below the threshold,below the threshold,4.4,below the threshold,below the threshold,below the threshold,below the threshold,below the threshold,below the threshold,below the threshold,below the threshold,below the threshold,4.05,"pKd (RAPGEF6, Q8TEU7): below the threshold; pKd (SNTB1, Q13884): below the threshold; pKd (SNTG1, Q9NSN8): below the threshold; pKd (TIAM2, Q8IVF5): 4.1; pKd (TJP1_3, Q07157): below the threshold"
"MLSKQSESAI [FLVCR1, Q9Y5Y0]",below the threshold,below the threshold,below the threshold,below the threshold,below the threshold,below the threshold,below the threshold,below the threshold,below the threshold,below the threshold,3.91,below the threshold,below the threshold,below the threshold,below the threshold,below the threshold,below the threshold,below the threshold,4.46,below the threshold,"pKd (RAPGEF6, Q8TEU7): below the threshold; pKd (SNTB1, Q13884): 3.68; pKd (SNTG1, Q9NSN8): 3.93; pKd (TIAM2, Q8IVF5): below the threshold; pKd (TJP1_3, Q07157): below the threshold"
"QSARLWETSI [ADAM22, Q9P0K1]",below the threshold,below the threshold,4.21,3.92,below the threshold,3.97,below the threshold,below the threshold,below the threshold,3.84,3.61,below the threshold,4.92,below the threshold,below the threshold,below the threshold,below the threshold,below the threshold,4.46,3.71,"pKd (RAPGEF6, Q8TEU7): below the threshold; pKd (SNTB1, Q13884): 4.69; pKd (SNTG1, Q9NSN8): 4.82; pKd (TIAM2, Q8IVF5): 3.97; pKd (TJP1_3, Q07157): below the threshold"
